{
  "source": "IntAct's records for PubMed 19262567",
  "key": {"[1]": {"target": "if4e_human EIF4E (UniProt P06730)", "sequence (P06730 whole entry)": "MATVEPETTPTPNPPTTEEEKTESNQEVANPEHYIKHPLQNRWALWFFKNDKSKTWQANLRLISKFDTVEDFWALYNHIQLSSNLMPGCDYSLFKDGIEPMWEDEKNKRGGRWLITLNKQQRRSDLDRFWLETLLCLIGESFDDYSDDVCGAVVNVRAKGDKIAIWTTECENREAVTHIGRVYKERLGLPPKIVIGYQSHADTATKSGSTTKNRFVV"}, "[2]": {"target": "if4e_human EIF4E (UniProt P06730)", "remark": "listed apart in the source"}},
  "data": [
    {"substance": "Leucine-rich PPR motif-containing protein, mitochondrial (Homo sapiens) (from UniProt P42704) Y441A", "values": [
      {"measurement": "effect of a mutation on the interaction", "setting": "[1]", "value": "disrupting interaction"}
    ]},
    {"substance": "Leucine-rich PPR motif-containing protein, mitochondrial (Homo sapiens) (from UniProt P42704) Y583A", "values": [
      {"measurement": "effect of a mutation on the interaction", "setting": "[2]", "value": "disrupting interaction"}
    ]}
  ]
}
